Tests used:
[1] = Description: The peptide stearoyl-[K(DOTA[^68Ga])]3-[…] (SEQ ID NO:15)-amide was dissolved in citrate buffer (pH 8.0)+4% BSA and injected i.v. in the tail vene of tumour bearing WAG/Rij rats. The rats were orthopically injected with 1×10^6 syngenic colon carcinoma cells (CC531 cells) 10 days prior to the measurements. At the day of measurement the rats received the peptide in a concentration of 400 nmol/kg body weight. During the experiments the rats were anaesthetised by isoflurane and kept at 37° C.
[2] = tested on: primary mouse hepatocytes
Description: Next it was analyzed if the modified doxorubicin is still cytotoxic to cells. In this experiment primary mouse hepatocytes isolated from C57BL/6 mice as described in Galle et al., (1994) (37) were incubated and reseeded in 96 well flat bottom plates to form a confluent cell layer. […] The cells were then incubated for 12 h (FIG. 6A) or 24 h (FIG. 6B), respectively. After incubation an MTT assay (Cell proliferation Kit, Roche Mannheim Germany) was performed as indicated by the manufacturer's instructions to determine remaining cell viability. The results are shown in FIGS. 6A and 6B (Cell Viability Assay).

Compound	enrichment in the liver (PET) ([1]; 400 nmol/kg i.v., WAG/Rji rat, five minutes post i.v. injection (FIG. 4A))	specificity of staining, liver tissue vs tumor tissue (merged PET images) ([1]; tumour bearing rat (CC531 colon carcinoma), FIG. 4C)	cytotoxic activity (HepG2 cells)	cytotoxic effects [2]
CCCCCCCCCCCCCCCCCC(=O)N[C@@H](CCCCNC(=O)CN1CCN(CC(=O)O)CCN(CC(=O)O)CCN(CC(=O)O)CC1)C(=O)N[C@@H](CCCCNC(=O)CN1CCN(CC(=O)O)CCN(CC(=O)O)CCN(CC(=O)O)CC1)C(=O)N[C@@H](CCCCNC(=O)CN1CCN(CC(=O)O)CCN(CC(=O)O)CCN(CC(=O)O)CC1)C(=O)N[C@@H](CC(N)=O)C(=O)N[C@@H](CC(C)C)C(=O)N[C@@H](CO)C(=O)N[C@H](C(=O)N[C@@H](CO)C(=O)N[C@@H](CC(N)=O)C(=O)N1CCC[C@H]1C(=O)N[C@@H](CC(C)C)C(=O)NCC(=O)N[C@@H](Cc1ccccc1)C(=O)N[C@@H](Cc1ccccc1)C(=O)N1CCC[C@H]1C(=O)N[C@@H](CC(=O)O)C(=O)N[C@@H](Cc1c[nH]cn1)C(=O)N[C@@H](CCC(N)=O)C(=O)N[C@@H](CC(C)C)C(=O)N[C@@H](CC(=O)O)C(=O)N1CCC[C@H]1C(N)=O)[C@@H](C)O	Specific enrichment	staining only liver tissue but not the tumor tissue		
COc1cccc2c1C(=O)c1c(O)c3c(c(O)c1C2=O)C[C@@](O)(C(=O)CO)C[C@@H]3O[C@H]1C[C@H](N)[C@H](O)[C@H](C)O1 [doxorubicin]			significant cytotoxicity	significant cytotoxic effects
